Laboratory results: patent US20200317768A1 (published 2020)

B1: MS_M103205H795-SG1/M103202L889-SK1 (antibody, human IgG1, kappa)
heavy: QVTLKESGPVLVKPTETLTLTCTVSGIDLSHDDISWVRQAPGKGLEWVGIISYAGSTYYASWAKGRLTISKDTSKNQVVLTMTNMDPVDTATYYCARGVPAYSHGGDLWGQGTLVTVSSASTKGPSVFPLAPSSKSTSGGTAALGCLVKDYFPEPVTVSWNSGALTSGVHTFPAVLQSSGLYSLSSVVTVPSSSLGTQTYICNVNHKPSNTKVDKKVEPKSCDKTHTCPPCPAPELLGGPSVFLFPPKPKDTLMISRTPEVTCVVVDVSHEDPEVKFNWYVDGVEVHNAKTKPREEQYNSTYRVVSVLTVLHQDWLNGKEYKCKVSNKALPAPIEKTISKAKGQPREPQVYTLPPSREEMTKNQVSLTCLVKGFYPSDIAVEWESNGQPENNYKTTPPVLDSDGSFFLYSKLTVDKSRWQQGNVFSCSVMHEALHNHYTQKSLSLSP
light: DIVMTQSPATLSLSPGERATLSCTSSQSVYHANWLSWFQQKPGQPPKLLIYWASTLAYGVPSRFSGSGSGTDFTLTISSLQPEDAATYYCAGGYGGGRYAFGQGTKVEIKRTVAAPSVFIFPPSDEQLKSGTASVVCLLNNFYPREAKVQWKVDNALQSGNSQESVTEQDSKDSTYSLSSTLTLSKADYEKHKVYACEVTHQGLSSPVTKSFNRGEC
notes: Parent antibody; also called MS1032LO06-SG1
B2: M103205H795-MY142/M103202L889-SK1 (antibody, human IgG1, kappa)
heavy: QVTLKESGPVLVKPTETLTLTCTVSGIDLSHDDISWVRQAPGKGLEWVGIISYAGSTYYASWAKGRLTISKDTSKNQVVLTMTNMDPVDTATYYCARGVPAYSHGGDLWGQGTLVTVSSASTKGPSVFPLAPSSKSTSGGTAALGCLVKDYFPEPVTVSWNSGALTSGVHTFPAVLQSSGLYSLSSVVTVPSSSLGTQTYICNVNHKPSNTKVDKKVEPKSCDKTHTCPPCPAPELLEGPSVFLFPPKPKDTLMISRTPEVTCVVVDVSEEDPEVKFNWYVDGVEVHNAKTKPREEQYNSTYRVVSVLTVLHQDWLNGKEYKCKVSNKALPAPIEKTISKAKGQPREPQVYTLPPSREEMTKNQVSLTCLVKGFYPSDIAVEWESNGQPENNYKTTPMVLDSDGSFFLYSKLTVDKSRWQQGNVFSCSVMHEALHNHYTQKSLSLSP
light: DIVMTQSPATLSLSPGERATLSCTSSQSVYHANWLSWFQQKPGQPPKLLIYWASTLAYGVPSRFSGSGSGTDFTLTISSLQPEDAATYYCAGGYGGGRYAFGQGTKVEIKRTVAAPSVFIFPPSDEQLKSGTASVVCLLNNFYPREAKVQWKVDNALQSGNSQESVTEQDSKDSTYSLSSTLTLSKADYEKHKVYACEVTHQGLSSPVTKSFNRGEC
B3: M103205H795-MY143/M103202L889-SK1 (antibody, human IgG1, kappa)
heavy: QVTLKESGPVLVKPTETLTLTCTVSGIDLSHDDISWVRQAPGKGLEWVGIISYAGSTYYASWAKGRLTISKDTSKNQVVLTMTNMDPVDTATYYCARGVPAYSHGGDLWGQGTLVTVSSASTKGPSVFPLAPSSKSTSGGTAALGCLVKDYFPEPVTVSWNSGALTSGVHTFPAVLQSSGLYSLSSVVTVPSSSLGTQTYICNVNHKPSNTKVDKKVEPKSCDKTHTCPPCPAPELLSGPSVFLFPPKPKDTLMISRTPEVTCVVVDVSEEDPEVKFNWYVDGVEVHNAKTKPREEQYNSTYRVVSVLTVLHQDWLNGKEYKCKVSNKALPAPIEKTISKAKGQPREPQVYTLPPSREEMTKNQVSLTCLVKGFYPSDIAVEWESNGQPENNYKTTPMVLDSDGSFFLYSKLTVDKSRWQQGNVFSCSVMHEALHNHYTQKSLSLSP
light: DIVMTQSPATLSLSPGERATLSCTSSQSVYHANWLSWFQQKPGQPPKLLIYWASTLAYGVPSRFSGSGSGTDFTLTISSLQPEDAATYYCAGGYGGGRYAFGQGTKVEIKRTVAAPSVFIFPPSDEQLKSGTASVVCLLNNFYPREAKVQWKVDNALQSGNSQESVTEQDSKDSTYSLSSTLTLSKADYEKHKVYACEVTHQGLSSPVTKSFNRGEC
B4: M103205H795-MY228/M103202L889-SK1 (antibody, human IgG1, kappa)
heavy: QVTLKESGPVLVKPTETLTLTCTVSGIDLSHDDISWVRQAPGKGLEWVGIISYAGSTYYASWAKGRLTISKDTSKNQVVLTMTNMDPVDTATYYCARGVPAYSHGGDLWGQGTLVTVSSASTKGPSVFPLAPSSKSTSGGTAALGCLVKDYFPEPVTVSWNSGALTSGVHTFPAVLQSSGLYSLSSVVTVPSSSLGTQTYICNVNHKPSNTKVDKKVEPKSCDKTHTCPPCPAPELLGYPSVFLFPPKPKDTLMISRTPEVTCVVVDVSDEDPEVKFNWYVDGVEVHNAKTKPREELYNSTYRVVSVLTVLHQDWLNGKEYKCKVSNKALPKPIEKTISKAKGQPREPQVYTLPPSREEMTKNQVSLTCLVKGFYPSDIAVEWESNGQPENNYKTTPPVLDSDGSFFLYSKLTVDKSRWQQGNVFSCSVMHEALHNHYTQKSLSLSP
light: DIVMTQSPATLSLSPGERATLSCTSSQSVYHANWLSWFQQKPGQPPKLLIYWASTLAYGVPSRFSGSGSGTDFTLTISSLQPEDAATYYCAGGYGGGRYAFGQGTKVEIKRTVAAPSVFIFPPSDEQLKSGTASVVCLLNNFYPREAKVQWKVDNALQSGNSQESVTEQDSKDSTYSLSSTLTLSKADYEKHKVYACEVTHQGLSSPVTKSFNRGEC
B5: M103205H795-MY229/M103202L889-SK1 (antibody, human IgG1, kappa)
heavy: QVTLKESGPVLVKPTETLTLTCTVSGIDLSHDDISWVRQAPGKGLEWVGIISYAGSTYYASWAKGRLTISKDTSKNQVVLTMTNMDPVDTATYYCARGVPAYSHGGDLWGQGTLVTVSSASTKGPSVFPLAPSSKSTSGGTAALGCLVKDYFPEPVTVSWNSGALTSGVHTFPAVLQSSGLYSLSSVVTVPSSSLGTQTYICNVNHKPSNTKVDKKVEPKSCDKTHTCPPCPAPELLGYPSVFLFPPKPKDTLMISRTPEVTCVVVDVSDEDPEVKFNWYVDGVEVHNAKTKPREELYNSTYRVVSVLTVLHQDWLNGKEYKCKVSNKALPKPIEKTISKAKGQPREPQVYTLPPSREEMTKNQVSLTCLVKGFYPSDIAVEWESNGQPENNYKTTPKVLDSDGSFFLYSKLTVDKSRWQQGNVFSCSVMHEALHNHYTQKSLSLSP
light: DIVMTQSPATLSLSPGERATLSCTSSQSVYHANWLSWFQQKPGQPPKLLIYWASTLAYGVPSRFSGSGSGTDFTLTISSLQPEDAATYYCAGGYGGGRYAFGQGTKVEIKRTVAAPSVFIFPPSDEQLKSGTASVVCLLNNFYPREAKVQWKVDNALQSGNSQESVTEQDSKDSTYSLSSTLTLSKADYEKHKVYACEVTHQGLSSPVTKSFNRGEC

What was measured:
Assay in all cases: SPR (Biacore), antibody captured, FcgR analyte, 25 C
[1] = molecular target: T1, cynomolgus monkey FcγRIIa3 extracellular domain, C-terminal His-tag (cynomolgus monkey)
T1 construct: also called cyno FcγRIIa3; cynoFcgRIIa3; not shown: His-tag added to C-terminus
T1 chain: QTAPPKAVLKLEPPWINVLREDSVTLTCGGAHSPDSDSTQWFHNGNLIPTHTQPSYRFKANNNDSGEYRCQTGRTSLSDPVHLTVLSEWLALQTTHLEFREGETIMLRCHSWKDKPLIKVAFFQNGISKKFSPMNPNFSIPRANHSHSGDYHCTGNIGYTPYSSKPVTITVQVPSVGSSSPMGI
Procedure: (§1) The kinetic analysis of interactions between these antibodies and FcγR was carried out using BIACORE® T200 or BIACORE® 4000 (GE Healthcare). HBS-EP+ (GE Healthcare) was used as the running buffer, and the measurement temperature was set to 25° C. A chip produced by immobilizing Protein A. Protein A/G or mouse anti-human IgG kappa light chain (BD Biosciences) onto a Series S Sensor Chip CM4 or CM5 (GE Healthcare) by the amine-coupling method was used. […] After the measurement, the antibody captured on the chip was washed off by allowing reaction with 10 mM glycine-HCl, pH1.5 and 25 mM NaOH so that the chip was regenerated and used repeatedly. The sensorgrams obtained as measurement results were analyzed by the 1:1 Langmuir binding model using the BIACORE® Evaluation Software to calculate the binding rate constant ka (L/mol/s) and dissociation rate constant kd (l/s), and the dissociation constant KD (mol/L) was calculated from these values. […] Regarding such interactions, KD values were calculated using the following 1:1 binding model described in BIACORE® T100 Software Handbook BR1006-48 Edition AE.
(§2) The behavior of interacting molecules according to the 1:1 binding model on BIACORE® can be described by Equation 1: Req=C·R max/(KD+C)+RI, wherein, Req is a plot of steady-state binding levels to analyte concentration. C is concentration, RI is bulk refractive index contribution in the sample, and Rmax is analyte binding capacity of the surface. When this equation is rearranged, KD can be expressed as Equation 2: KD=C·Rmax/(Req−RI)−C. KD can be calculated by substituting the values of Rmax, RI, and C into Equation 1 or Equation 2. From the current measurement conditions, RI=0, C=2 μmol/L can be used.

[2] = molecular target: T2, human FcγRIIaR extracellular domain, C-terminal His-tag (human, UniProt P12318 34-217)
T2 construct: also called human FcγRIIa (type R); FcgRIIaR; not shown: His-tag added to C-terminus
T2 chain: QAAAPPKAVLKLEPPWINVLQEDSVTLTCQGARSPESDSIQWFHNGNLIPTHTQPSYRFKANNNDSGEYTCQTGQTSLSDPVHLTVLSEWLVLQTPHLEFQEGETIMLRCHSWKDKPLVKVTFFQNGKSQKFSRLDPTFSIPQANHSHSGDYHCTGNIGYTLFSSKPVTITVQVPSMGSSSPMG
Procedure: as §1, §2

[3] = molecular target: T3, cynomolgus monkey FcγRIIb extracellular domain, C-terminal His-tag (cynomolgus monkey)
T3 construct: also called cyno FcγRIIb; cynoFcγRIIb; not shown: His-tag added to C-terminus
T3 chain: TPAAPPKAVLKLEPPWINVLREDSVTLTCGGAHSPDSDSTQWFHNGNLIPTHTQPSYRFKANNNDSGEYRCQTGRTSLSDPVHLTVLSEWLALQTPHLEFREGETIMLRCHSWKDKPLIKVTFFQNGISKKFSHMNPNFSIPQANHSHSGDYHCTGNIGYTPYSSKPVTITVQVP
Procedure: as §1, §2

[4] = molecular target: T4, cynomolgus monkey FcγRIIa2 extracellular domain, C-terminal His-tag (cynomolgus monkey)
T4 construct: also called cyno FcγRIIa2; cynoFcgRIIa2; not shown: His-tag added to C-terminus
T4 chain: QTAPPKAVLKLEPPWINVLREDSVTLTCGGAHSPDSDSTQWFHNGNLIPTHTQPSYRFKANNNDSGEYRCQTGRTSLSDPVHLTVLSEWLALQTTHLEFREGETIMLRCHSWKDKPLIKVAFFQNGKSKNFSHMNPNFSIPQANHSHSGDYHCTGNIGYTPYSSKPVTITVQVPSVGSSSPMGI
Procedure: as §1, §2

[5] = molecular target: T5, human FcγRIIaH extracellular domain, C-terminal His-tag (human, UniProt P12318 34-217)
T5 construct: also called human FcγRIIa (type H); FcgRIIaH; not shown: His-tag added to C-terminus
T5 sequence: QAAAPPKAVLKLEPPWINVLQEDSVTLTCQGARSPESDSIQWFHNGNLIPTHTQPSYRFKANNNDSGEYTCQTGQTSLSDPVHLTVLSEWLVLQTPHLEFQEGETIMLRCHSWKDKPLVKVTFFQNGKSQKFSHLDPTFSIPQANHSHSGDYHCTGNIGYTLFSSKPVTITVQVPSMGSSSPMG
Procedure: as §1, §2

[6] = molecular target: T6, human FcγRIIIaV extracellular domain, C-terminal His-tag (human, UniProt P08637 17-208)
T6 construct: also called FcgRIIIaV; not shown: His-tag added to C-terminus
T6 sequence (P08637 17-208 F176V): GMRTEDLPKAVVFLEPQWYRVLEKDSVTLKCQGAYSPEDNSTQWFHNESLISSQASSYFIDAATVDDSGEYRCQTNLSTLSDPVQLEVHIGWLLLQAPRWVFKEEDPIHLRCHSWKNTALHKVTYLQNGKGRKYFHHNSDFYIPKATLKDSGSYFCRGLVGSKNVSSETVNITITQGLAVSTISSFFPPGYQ
Procedure: as §1, §2

[7] = molecular target: T7, cynomolgus monkey FcγRIIa1 extracellular domain, C-terminal His-tag (cynomolgus monkey)
T7 construct: also called cyno FcγRIIa1; cynoFcgRIIa1; not shown: His-tag added to C-terminus
T7 chain: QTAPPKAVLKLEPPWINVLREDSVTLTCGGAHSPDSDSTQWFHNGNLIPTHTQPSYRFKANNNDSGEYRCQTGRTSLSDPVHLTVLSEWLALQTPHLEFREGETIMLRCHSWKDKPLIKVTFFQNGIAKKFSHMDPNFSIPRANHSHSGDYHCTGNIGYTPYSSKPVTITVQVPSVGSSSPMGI
Procedure: as §1, §2

[8] = molecular target: T8, human FcγRIIb extracellular domain, C-terminal His-tag (human, UniProt P31994 43-217)
T8 construct: also called FcgRIIb (human); not shown: His-tag added to C-terminus
T8 sequence: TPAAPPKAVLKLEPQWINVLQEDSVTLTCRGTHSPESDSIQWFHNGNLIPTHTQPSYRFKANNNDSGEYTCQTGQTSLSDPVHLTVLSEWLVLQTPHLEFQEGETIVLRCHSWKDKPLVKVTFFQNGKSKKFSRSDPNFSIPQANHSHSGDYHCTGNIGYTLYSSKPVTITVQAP
Procedure: as §1, §2

| Binder | Kd [1] | Kd [2] | Kd [3] | Kd [4] | Kd [5] | Kd [6] | Kd [7] | Kd [8] |
| --- | --- | --- | --- | --- | --- | --- | --- | --- |
| B1 | 17000 nM | 1100 nM | 1800 nM | 5100 nM | 690 nM | 810 nM | 3200 nM | 4600 nM |
| B2 | 25000 nM | 170 nM | 1800 nM | 4900 nM | 190 nM | 530 nM | 4100 nM | 950 nM |
| B3 | 2900 nM | 83 nM | 460 nM | 1300 nM | 37 nM | 1500 nM | 1100 nM | 680 nM |
| B4 |  | 100 nM | 1100 nM | 3300 nM | 2200 nM | 140000 nM | 3000 nM | 300 nM |
| B5 | 1900 nM | 81 nM | 470 nM | 2200 nM | 980 nM |  | 1500 nM | 150 nM |
